Assay results published in paper PMC12151148.

B1: NuMA (1808–2001) (domain or fragment)
chain: KLDVEEPDSANSSFYSTRSAPASQASLRATSSTQSLARLGSPDYGNSALLSLPGYRPTTRSSARRSQAGVSSGAPPGRNSFYMGTCQDEPEQLDDWNRIAELQQRNRVCPPHLKTCYPLESRPSLSLGTITDEEMKTGDPQETLRRASMQPIQIAEGTGITTRQQRKRVSLEPHQGPGTPESKKATSCFPRPMT
B2: NuMA (1847–1914) (domain or fragment)
chain: GSPDYGNSALLSLPGYRPTTRSSARRSQAGVSSGAPPGRNSFYMGTCQDEPEQLDDWNRIAELQQRNR

Assays:
[1] = target: FL-AGS3 (mouse); assay: ITC; 25°C; 50 mM Tris (pH 8.0), 100 mM NaCl, 1 mM EDTA; one protein (0.2 mM) injected into another (0.02 mM); one-site binding model
[2] = target: FL-AGS3 + Gαi3⋅GDP (mouse | human) (UniProt P08754); assay: as above
[3] = target: FL-LGN (mouse); assay: as above
[4] = target: FL-LGN + Gαi3⋅GDP (mouse | human) (UniProt P08754); assay: as above
[5] = target: FL-AGS3-L-4E (mouse); assay: SEC-MALS; called SLS; HELEOS II (Wyatt); 100 μl of purified sample at about 10 μM
[6] = target: FL-LGN-4E (mouse); assay: as above
[7] = target: AGS3-TPR (1–405) (mouse); assay: ITC; 25°C; 50 mM Tris (pH 8.0), NaCl raised to 300 mM for AGS3-TPR or AGS3-L, 1 mM EDTA; one protein (0.2 mM) injected into another (0.02 mM); one-site binding model
[8] = target: AGS3-TPR (1–405) (mouse); assay: SEC-MALS; called SLS; HELEOS II (Wyatt); 100 μl of purified sample at about 10 μM
[9] = target: AGS3-L (−23–405) (mouse); assay: as above
[10] = target: LGN-TPR (1–409) (mouse); assay: as above

Chain of FL-LGN + Gαi3⋅GDP (mouse | human) (P08754 whole entry, looked up): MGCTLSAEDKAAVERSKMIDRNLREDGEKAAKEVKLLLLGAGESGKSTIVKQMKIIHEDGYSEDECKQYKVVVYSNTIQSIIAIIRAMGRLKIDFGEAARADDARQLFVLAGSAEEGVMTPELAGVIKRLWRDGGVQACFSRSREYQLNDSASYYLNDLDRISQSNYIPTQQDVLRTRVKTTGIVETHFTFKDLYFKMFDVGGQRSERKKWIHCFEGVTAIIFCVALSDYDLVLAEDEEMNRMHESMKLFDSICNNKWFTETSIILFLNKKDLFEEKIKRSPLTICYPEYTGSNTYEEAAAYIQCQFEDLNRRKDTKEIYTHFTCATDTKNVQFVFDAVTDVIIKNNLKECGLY
Chain of FL-AGS3 + Gαi3⋅GDP (mouse | human) (P08754 whole entry, looked up): as above

Binder	Kd [1] [µM]	Kd [2] [µM]	Kd [3] [µM]	Kd [4] [µM]	stoichiometry N (NuMA per FL-AGS3-L-4E (1:1)) [5]	stoichiometry N (NuMA per FL-LGN-4E (2:2)) [6]	Kd [7] [µM]	stoichiometry N (NuMA per AGS3-TPR (1:1)) [8]	stoichiometry N (NuMA per AGS3-L (3:3)) [9]	stoichiometry N (NuMA per LGN-TPR (3:3)) [10]
B1	3.61	2.28	3.13	2.24	1	1				
NSFYMGTCQDEPEQLDDWNRIAELQQR (domain or fragment) [NuMA (1886–1912)]							0.22			
WGLWGAQESRRLCCVGPDRCGQALLQIGINMMALPGGRHLDSVPLQEQR (domain or fragment) [Insc (18–66)]	2.27	2.29	3.92	2.62			0.29			
B2								1	1	1
